Results from patent US12691186B2, “B7-H3 miniproteins, conjugates, and uses thereof” (priority 2023, dated 2026).
Primed or numbered codes have the meaning given here. [ ]: non-standard residue; d: D form. The star is where a group is joined. Biotin = O=C1N[C@H]2[C@H](CS[C@H]2CCCCC(=O)*)N1; Lys(Me2) = CN(C)CCCC[C@H](N)C(=O)O; PEG4′ = not defined here

Columns and labels:
[1] = In vitro metabolic stability, kidney brush border membrane preparations (KBBM); format: in vitro ADME; set-up: unit not given here; conditions: mouse kidney brush border membrane preparation, 37° C.
Procedure: (§1) Exemplary miniprotein conjugates were spiked into biological matrices at initial concentration between 1-2 μM. Tested matrices were varied by species (mouse, rat, human) and type (plasma, serum, and kidney brush border membrane preparations tested each from 0.625-100 μg/mL protein content). Tested conditions were incubated with TAs at 37° C. for 4 hours. At collection points of 0, 15, 30, 60, 120, 240 minutes, 50 μL of each condition were quenched by organic solvent (methanol or acetonitrile) or the addition of 4% phosphoric acid solution. Fractions of each quenched timepoint were subsequently assayed for parent TA concentration by high resolution LC-MS. Percent-parent-remaining-time plots were constructed from the ratio of each given time collection to the time-zero parent TA. Percent-parent-remaining in mouse serum and plasma for exemplary miniproteins are recorded in Table 8.

[2] = In vitro metabolic stability, plasma; format: in vitro ADME; set-up: unit not given here; conditions: 37° C.
Procedure: as §1

[3] = tested on: >6,500 different human proteins; assay: Off-target binding, cell microarray platform (Retrogenix Assay) in HEK293 cells; conditions: biotin-labeled molecules
Procedure: To evaluate potential off-target binding, eight biotin-labeled molecules were tested in a cell microarray platform (Charles River Lab, Retrogenix Assay) having >6,500 different human proteins spanning diverse functions and subcellular locations.
Initially, two pools of molecules were tested. Pool #1 consisted of C298, C300, C302, C304, and pool #2 consisted of C306, C308, C310, and C312 at 2 μg/mL for each molecule. To perform this assay, HEK293 cells were plated on a dish and localized spots of cells were transiently over-expressed with a cDNA encoding for one of the >6,500 targets. Included in this library were two isoforms of CD276 (B7-H3) and B7-H3 related proteins (B7-1, B7-2, B7-H1/PD-L1, and B7-H2). The molecule pools were incubated on the fixed, over-expressing cell microarrays (n=2 per protein), and binding was visualized using Alexa Fluor 647 streptavidin fluorescence. All transfection efficiencies exceeded minimum thresholds for the microarray expression targets. Preliminary interactions identified from pooled results were re-spotted in duplicates, and each of the eight compounds were tested individually (n=2) at 2 μg/mL and/or in dose response against these targets as described above to validate the interactions.
All positive control interactions were strong and passed quality control. Specific interactions observed (median SNR≥1) confirmed on-target B7-H3 binding in two different isoforms for each of the eight test molecules. These interactions with the primary target occurred after fixation and in live cells (absence of fixation). No significant additional interactions were confirmed for any test molecules outside of B7-H3, indicating high specificity for the primary target (data not shown).

[4] = tested on: opossum kidney proximal tubule cells; assay: OK-PTC uptake assay of miniprotein conjugates in presence of scaffold A decoys; format: cell-based; conditions: compound 20 μM; for % Uptake reduction in the presence of a decoy C118: 20-fold molar excess of decoy C118; for % Uptake reduction in the presence of a decoy C119: 20-fold molar excess of decoy C119
Procedure: This Example describes reduction of uptake of exemplary truncated and constrained B7-H3 miniprotein conjugates (C272, C308, C234, C394, C250, and C228) when combined with exemplary scaffold A decoys (C118, C119 and C120) as compared to no decoy. Uptake of compounds was evaluated in opossum kidney proximal tubule cells (as described in Example 5). Here, cells were treated with a compound in the presence or absence of a 20-fold molar excess of exemplary scaffold A decoys, C118, C119, and C120. Results depicting uptake of six exemplary B7-H3-targeting compounds, C272, C308, C234, C394, C250, and C228, in OK-PTC cells in the presence and absence of exemplary decoys C118, C119, and C120 (scaffold A decoys) are shown in Table 13. The B7-H3-targeting compounds were used at 20 μM and the decoys used at a 20-fold (with C272, C308, C234, C394, and C250) and 10-fold (with C228) molar excess.

With “C349 (CAREKIAALSEIIWLPCLTYAQIXAFIAALNDDPCQSAEILSEAQELCS; DOTA-PEG4, methyl-Lys, C-terminal amide; SITE 24 monomethyllysine) [Compound C349]” the “In vitro Stability (mouse) - KBBM” value [1] was over 12 and the “In vitro Stability (mouse) - Plasma” value [2] was over 12.
With “C313 (CAXEKIAALSEIIWLPCLTYAQIXAFIAALNDDPCNSSEILSEAXELCS; DOTA-PEG4 N-term, methylated lysines, C-amide; SITE 3 trimethyllysine; SITE 24 monomethyllysine; SITE 45 monomethyllysine) [Compound C313]” the “In vitro Stability (mouse) - KBBM” value [1] was over 12 and the “In vitro Stability (mouse) - Plasma” value [2] was over 12.
In the case of “C493 (CAREKINALGEIIWLPCLTYDQIXAFIAXLNDDPCQSSEILSEAXELCS; not fully specified; DOTA-PEG4, methyl-Lys, C-terminal amide; SITE 24 monomethyllysine; SITE 29 monomethyllysine; SITE 45 monomethyllysine) [Compound C493]”, the “In vitro Stability (mouse) - KBBM” value [1] is reported as over 12 and the “In vitro Stability (mouse) - Plasma” value [2] is reported as over 12.
In the case of `CC[C@H](C)[C@@H]1NC(=O)[C@H](Cc2ccccc2)NC(=O)[C@H](C)NC(=O)[C@H](CCCCNC)NC(=O)[C@H]([C@@H](C)CC)NC(=O)[C@H](CCC(N)=O)NC(=O)[C@H](C)NC(=O)[C@H](Cc2ccc(O)cc2)NC(=O)[C@H]([C@@H](C)O)NC(=O)[C@H](CC(C)C)NC(=O)[C@@H]2CSSC[C@@H](C(=O)N[C@@H](CO)C(N)=O)NC(=O)[C@H](CC(C)C)NC(=O)[C@H](CCC(=O)O)NC(=O)[C@H](CCCCNC)NC(=O)[C@H](C)NC(=O)[C@H](CCC(=O)O)NC(=O)[C@H](CO)NC(=O)[C@H](CC(C)C)NC(=O)[C@H]([C@@H](C)CC)NC(=O)[C@H](CC(N)=O)NC(=O)[C@H](C)NC(=O)[C@H](CO)NC(=O)[C@H](CCC(N)=O)NC(=O)[C@H](CSSC[C@H](NC(=O)CCOCCOCCOCCOCCNC(=O)CCCC[C@@H]3SC[C@@H]4NC(=O)N[C@@H]43)C(=O)N[C@@H](C)C(=O)N[C@@H](CCCNC(=N)N)C(=O)N[C@@H](CCC(=O)O)C(=O)N[C@@H](CCCCN)C(=O)N[C@@H]([C@@H](C)CC)C(=O)N[C@@H](C)C(=O)N[C@@H](C)C(=O)N[C@@H](CC(C)C)C(=O)N[C@@H](CO)C(=O)N[C@@H](CCC(=O)O)C(=O)N[C@@H]([C@@H](C)CC)C(=O)N[C@@H]([C@@H](C)CC)C(=O)N[C@@H](Cc3c[nH]c4ccccc34)C(=O)N[C@@H](CC(C)C)C(=O)N3CCC[C@H]3C(=O)N2)NC(=O)[C@@H]2CCCN2C(=O)[C@H](CC(=O)O)NC(=O)[C@H](CC(=O)O)NC(=O)[C@H](CC(N)=O)NC(=O)[C@H](CC(C)C)NC(=O)[C@H](C)NC(=O)[C@H](C)NC1=O` [Compound C302], the “background binding to untransfected HEK293 cells” value [3] is reported as “low-background binding”.
For “C272 (CAREKIAALSEIIWLPCLTYAQIXAFIAALNDDPCQSAEILSEAKELCS; Biotin-PEG4 N-term, dimethyllysine, C-amide; SITE 24 dimethyllysine) [Compound C272]”, the “% Uptake reduction in the presence of a decoy C118” value [4] was 95.6%, the “% Uptake reduction in the presence of a decoy C119” value [4] was 98.8% and the “% Uptake reduction in the presence of a decoy C120” value ([4]; 20-fold molar excess of decoy C120) was 97.5%.
In the case of “C467 (CAREKINALGEIIWLPCLTYDQIXAFIAALNDDPCQSSEILSEAXELCS; not fully specified; DOTA-PEG4, methyl-Lys, C-terminal amide; SITE 24 monomethyllysine; SITE 45 monomethyllysine) [Compound C467]”, the “In vitro Stability (mouse) - KBBM” value [1] is reported as over 12 and the “In vitro Stability (mouse) - Plasma” value [2] is reported as over 12.
For “C305 (CAXEKIAALSEIIWLPCLTYAQIXAFIAALNDDPCQSSEILSEAXELCS; DOTA-PEG4 N-term, methylated lysines, C-amide; SITE 3 trimethyllysine; SITE 24 monomethyllysine; SITE 45 monomethyllysine) [Compound C305]”, the “In vitro Stability (mouse) - KBBM” value [1] was over 12 and the “In vitro Stability (mouse) - Plasma” value [2] was over 12.
With “C317 (CAXEKIAALSEIIWLPCLTYAQIXAFIARLNDDPCQSAEILSEAXELCS; DOTA-PEG4 N-term, methylarginine, methyllysines, C-amide; SITE 3 Rme; SITE 24 monomethyllysine; SITE 45 monomethyllysine) [Compound C317]” the “In vitro Stability (mouse) - Plasma” value [2] was over 12.
With “C303 (CAREKIAALSEIIWLPCLTYAQIXAFIAALNDDPCQSANILSEAXELCS; DOTA-PEG4 N-term, methyllysines, C-amide; SITE 24 monomethyllysine; SITE 45 monomethyllysine) [Compound C303]” the “In vitro Stability (mouse) - KBBM” value [1] was over 12 and the “In vitro Stability (mouse) - Plasma” value [2] was over 12.
In the case of “C319 (CAXEKIAALSEIIWLPCLTYAQIXAFIAXLNXDPCQSSEILSEAXELCS; DOTA-PEG4 N-term, methyllysines, citrulline, C-amide; SITE 3 trimethyllysine; SITE 24 dimethyllysine; SITE 29 monomethyllysine; SITE 32 citrulline; SITE 45 monomethyllysine) [Compound C319]”, the “In vitro Stability (mouse) - KBBM” value [1] is reported as over 12 and the “In vitro Stability (mouse) - Plasma” value [2] is reported as over 12.
With “C250 ({Biotin-PEG4′}-CAKEKIAALSEIIWLPCLTYAQI[Lys(Me2)]AFIAALNDDPCQSSEILSEAKELNDSQCP-NH2; disulfide (positions not given here); also: disulfide bonds between pairs of the four Cys, pairing not given here) [Compound C250]” the “% Uptake reduction in the presence of a decoy C118” value [4] was 90.2% and the “% Uptake reduction in the presence of a decoy C119” value [4] was 97.4%.
In the case of “C354 (CAREKIAALSEIIWLPCLTYAQIXAFIAALNDDPCQSSEILSEAXELCS; not fully specified; DOTA-PEG4, methyl-Lys, C-terminal amide; SITE 24 monomethyllysine; SITE 45 monomethyllysine) [Compound C354]”, the “In vitro Stability (mouse) - KBBM” value [1] is reported as over 12 and the “In vitro Stability (mouse) - Plasma” value [2] is reported as over 12.
In the case of “C311 (CAXEKIAALSEIIWLPCLNYAQIXAFIAALNDDPCQSSEILSEAXELCS; DOTA-PEG4 N-term, methylated lysines, C-amide; SITE 3 trimethyllysine; SITE 24 monomethyllysine; SITE 45 monomethyllysine) [Compound C311]”, the “In vitro Stability (mouse) - KBBM” value [1] is reported as over 12 and the “In vitro Stability (mouse) - Plasma” value [2] is reported as over 12.
For “C307 (CAXEKIAALSEIIWLPCLTYAQIXAFIXALNDDPCQSSEILSEAXELCS; DOTA-PEG4 N-term, methylated lysines, C-amide; SITE 3 trimethyllysine; SITE 24 monomethyllysine; SITE 28 monomethyllysine; SITE 45 monomethyllysine) [Compound C307]”, the “In vitro Stability (mouse) - KBBM” value [1] was over 12 and the “In vitro Stability (mouse) - Plasma” value [2] was over 12.
